Measurements reported in publication PMC8438039.

target: human Toll-like receptor 5 (hTLR5) on HEK-Blue hTLR5 cells (human) (UniProt O60602)
Sequence of UniProt O60602 (O60602 21-858): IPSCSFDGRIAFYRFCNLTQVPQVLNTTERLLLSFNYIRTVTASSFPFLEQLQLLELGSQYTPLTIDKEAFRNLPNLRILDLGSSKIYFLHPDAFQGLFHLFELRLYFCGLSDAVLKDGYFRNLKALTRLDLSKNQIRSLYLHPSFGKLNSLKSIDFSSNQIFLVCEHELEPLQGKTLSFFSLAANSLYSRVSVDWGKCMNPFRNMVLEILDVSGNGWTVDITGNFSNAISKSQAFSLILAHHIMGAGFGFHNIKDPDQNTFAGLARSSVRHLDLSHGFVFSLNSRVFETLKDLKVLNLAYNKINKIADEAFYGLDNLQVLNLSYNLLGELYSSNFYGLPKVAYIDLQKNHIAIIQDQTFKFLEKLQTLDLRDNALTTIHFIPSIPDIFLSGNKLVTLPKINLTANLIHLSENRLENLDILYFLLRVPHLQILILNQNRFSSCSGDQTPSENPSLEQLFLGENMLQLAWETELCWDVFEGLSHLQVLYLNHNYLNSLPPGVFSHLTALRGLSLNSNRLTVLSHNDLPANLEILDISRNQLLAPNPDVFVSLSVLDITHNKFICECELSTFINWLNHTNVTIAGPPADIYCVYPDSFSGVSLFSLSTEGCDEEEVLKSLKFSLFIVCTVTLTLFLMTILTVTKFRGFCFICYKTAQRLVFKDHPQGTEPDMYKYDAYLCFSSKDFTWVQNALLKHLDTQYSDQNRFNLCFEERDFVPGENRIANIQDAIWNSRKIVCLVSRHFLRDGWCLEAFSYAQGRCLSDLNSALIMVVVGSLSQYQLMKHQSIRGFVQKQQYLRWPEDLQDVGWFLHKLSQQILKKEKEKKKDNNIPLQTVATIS

Compared with “deimmunized FlaB (dFlaB), FlaB lacking residues 175-193 (natural protein)”, “Vibrio vulnificus flagellin B (FlaB), wild type recombinant (natural protein)” is 2.2-fold lower in EC50 of TLR5-dependent NF-κB activation in HEK-Blue hTLR5 cells (OD 620; 0.03719 nM to 76.16 nM protein): 9.01 nM for the first, 4.18 nM for the second.

Work on “D2D3 domain-depleted FlaB (FlaB^ΔD2D3) (natural protein)” yielded an EC50 of TLR5-dependent NF-κB activation in HEK-Blue hTLR5 cells (OD 620; 0.03719 nM to 76.16 nM protein) of 13.2 nM.
